In the supplement of paper PMC11246515:
± gives the standard deviation of the averaged measurements.

Assay: total protein half-life in vivo (active degradation + dilution); higher = more stable protein
[1] = E. coli NCM3722 delta-clpP delta-lon delta-hslV, growth: N-lim chemostat, doubling time 6 h
[2] = E. coli NCM3722 delta-clpP, growth: N-lim chemostat, doubling time 6 h
[3] = E. coli NCM3722 delta-hslV, growth: N-lim chemostat, doubling time 6 h
[4] = E. coli NCM3722 delta-lon, growth: N-lim chemostat, doubling time 6 h
[5] = E. coli NCM3722 delta-smpB, growth: N-lim chemostat, doubling time 6 h
[6] = wild type E. coli NCM3722, growth: C-lim chemostat, doubling time 3 h
[7] = wild type E. coli NCM3722, growth: C-lim chemostat, doubling time 6 h
[8] = wild type E. coli NCM3722, growth: C-lim chemostat, doubling time 12 h
[9] = wild type E. coli NCM3722, growth: N-lim chemostat, doubling time 6 h
[10] = wild type E. coli NCM3722, growth: N-lim chemostat, doubling time 12 h
[11] = wild type E. coli NCM3722, growth: P-lim chemostat, doubling time 6 h
[12] = wild type E. coli NCM3722, growth: P-lim chemostat, doubling time 12 h

| Sequence | total protein half-life in vivo [1] [h] | total protein half-life in vivo [2] [h] | total protein half-life in vivo [3] [h] | total protein half-life in vivo [4] [h] | total protein half-life in vivo [5] [h] | total protein half-life in vivo [6] [h] | total protein half-life in vivo [7] [h] | total protein half-life in vivo [8] [h] | total protein half-life in vivo [9] [h] | total protein half-life in vivo [10] [h] | total protein half-life in vivo [11] [h] | total protein half-life in vivo [12] [h] |
| --- | --- | --- | --- | --- | --- | --- | --- | --- | --- | --- | --- | --- |
| MARFVVLVIDSFGVGAMKDVTLVRPQDAGANTCGHILSQLPHLQLPTLETLGLINALGYAPGDMQPSDSATWGVAELQHEGGDTFMGHQEILGTRPLPPLRMPFRDVIDRVEQALVSAGWQVERRGDDLQFLWVNQAVAIGDNLEADLGQVYNITANLSVISFDDAIKIGRIVREQVQVGRVITFGGLLTDSQRILDAAESKEGRFIGINAPRSGAYDNGFQVVHMGYGVDEKVQVPQKLYEAGVPTVLVGKVADIVNNPYGVSWQNLVDSQRIMDITLNEFNTHPTAFICTNIQETDLAGHAEDVARYAERLQVVDRNLARLVEAMQPDDCLVVMADHGNDPTIGHSHHTREVVPVLVYQQGMIATQLGVRTTLSDVGATVCEFFRAPPPQNGRSFLSSLRFAGDTL | 4.67 |  |  |  |  |  |  |  |  |  |  |  |
| MARKWLNLFAGAALSFAVAGNALADEGKITVFAAASLTNAMQDIATQFKKEKGVDVVSSFASSSTLARQIEAGAPADLFISADQKWMDYAVDKKAIDTATRQTLLGNSLVVVAPKASVQKDFTIDSKTNWTSLLNGGRLAVGDPEHVPAGIYAKEALQKLGAWDTLSPKLAPAEDVRGALALVERNEAPLGIVYGSDAVASKGVKVVATFPEDSHKKVEYPVAVVEGHNNATVKAFYDYLKGPQAAEIFKRYGFTIK | 5.7 ± 0.29 | 5.9 ± 0.53 | 6.46 ± 0.2 | 6.16 ± 0.47 | 6.39 ± 0.36 | 2.87 ± 0.23 | 6.01 ± 0.3 | 12.8 ± 0.23 | 5.9 ± 0.19 | 12.7 ± 0.75 | 6.64 ± 0.41 | 13.7 ± 0.95 |
| MARRILVVEDEAPIREMVCFVLEQNGFQPVEAEDYDSAVNQLNEPWPDLILLDWMLPGGSGIQFIKHLKRESMTRDIPVVMLTARGEEEDRVRGLETGADDYITKPFSPKELVARIKAVMRRISPMAVEEVIEMQGLSLDPTSHRVMAGEEPLEMGPTEFKLLHFFMTHPERVYSREQLLNHVWGTNVYVEDRTVDVHIRRLRKALEPGGHDRMVQTVRGTGYRFSTRF [P0AFJ5] |  | 4.76 ± 0.81 | 3.79 ± 1.1 | 5.36 ± 0.14 | 4.52 ± 0.53 | 2.93 ± 0.28 | 5.33 ± 0.14 | 8.01 ± 1.2 | 4.51 ± 0.3 | 8.09 | 6.11 ± 1 | 11.3 ± 0.5 |
| MASQLTDAFARKFYYLRLSITDVCNFRCTYCLPDGYKPSGVTNKGFLTVDEIRRVTRAFARLGTEKVRLTGGEPSLRRDFTDIIAAVRENDAIRQIAVTTNGYRLERDVASWRDAGLTGINVSVDSLDARQFHAITGQDKFNQVMAGIDAAFEAGFEKVKVNTVLMRDVNHHQLDTFLNWIQHRPIQLRFIELMETGEGSELFRKHHISGQVLRDELLRRGWIHQLRQRSDGPAQVFCHPDYAGEIGLIMPYEKDFCATCNRLRVSSIGKLHLCLFGEGGVNLRDLLEDDTQQQALEARISAALREKKQTHFLHQNNTGITQNLSYIGG | 3.3 ± 0.76 | 1.83 ± 0.45 | 0.963 ± 0.26 | 1.07 ± 0.34 | 0.9113 ± 0.009 | 0.618 ± 0.051 | 1.11 ± 0.23 | 1.92 ± 0.54 | 1.03 | 1.81 ± 0.17 | > 8 | 2.39 ± 0.45 |
| MASTARSLRYALAILTTSLVTPSVWAHAHLTHQYPAANAQVTAAPQAITLNFSEGVETGFSGAKITGPKNENIKTLPAKRNEQDQKQLIVPLADSLKPGTYTVDWHVVSVDGHKTKGHYTFSVK [P0AA57] | 5.53 |  | > 8 | 5.82 | 4.84 | 3.06 | 5.46 ± 0.25 | 9.96 ± 0.3 | 5.82 ± 0.43 | 9.82 ± 0.3 | 4.82 | 9.37 ± 0.95 |
| MASTFTSDTLPADHKAAIRQMKHALRAQLGDVQQIFNQLSDDIATRVAEINALKAQGDAVWPVLSYADIKAGHVTAEQREQIKRRGCAVIKGHFPREQALGWDQSMLDYLDRNRFDEVYKGPGDNFFGTLSASRPEIYPIYWSQAQMQARQSEEMANAQSFLNRLWTFESDGKQWFNPDVSVIYPDRIRRRPPGTTSKGLGAHTDSGALERWLLPAYQRVFANVFNGNLAQYDPWHAAHRTEVEEYTVDNTTKCSVFRTFQGWTALSDMLPGQGLLHVVPIPEAMAYVLLRPLLDDVPEDELCGVAPGRVLPVSEQWHPLLIEALTSIPKLEAGDSVWWHCDVIHSVAPVENQQGWGNVMYIPAAPMCEKNLAYAHKVKAALEKGASPGDFPREDYETNWEGRFTLADLNIHGKRALGMDV | 3.33 ± 0.48 | 2.54 ± 0.23 | 2.4687 ± 0.002 | 2.95 ± 0.21 | 2.62 ± 0.082 | 2.7 ± 0.11 | 4.34 ± 1 | 3.99 ± 0.74 | 2.526 ± 0.014 | 3.68 ± 0.21 | 4.563 ± 0.02 | 7.6 ± 0.48 |
| MATAKKITIHDVALAAGVSVSTVSLVLSGKGRISTATGERVNAAIEELGFVRNRQASALRGGQSGVIGLIVRDLSAPFYAELTAGLTEALEAQGRMVFLLHGGKDGEQLAQRFSLLLNQGVDGVVIAGAAGSSDDLRRMAEEKAIPVIFASRASYLDDVDTVRPDNMQAAQLLTEHLIRNGHQRIAWLGGQSSSLTRAERVGGYCATLLKFGLPFHSDWVLECTSSQKQAAEAITALLRHNPTISAVVCYNETIAMGAWFGLLKAGRQSGESGVDRYFEQQVSLAAFTDATPTTLDDIPVTWASTPARELGITLADRMMQKITHEETHSRNLIIPARLIAAK | 6.29 ± 0.064 | 6.58 ± 1.8 | 4.56 | 5.27 ± 0.39 | 4.45 ± 0.36 | 2.7 ± 0.15 | 5.25 ± 0.078 | 8.757 ± 0.013 | 4.64 ± 0.33 | 8.39 ± 2.1 | 4.36 ± 0.092 | 9.01 ± 0.16 |
| MATGTQPDAGQILNSLINSILLIDDNLAIHYANPAAQQLLAQSSRKLFGTPLPELLSYFSLNIELMQESLEAGQGFTDNEVTLVIDGRSHILSVTAQRMPDGMILLEMAPMDNQRRLSQEQLQHAQQVAARDLVRGLAHEIKNPLGGLRGAAQLLSKALPDPSLLEYTKVIIEQADRLRNLVDRLLGPQLPGTRVTESIHKVAERVVTLVSMELPDNVRLIRDYDPSLPELAHDPDQIEQVLLNIVRNALQALGPEGGEIILRTRTAFQLTLHGERYRLAARIDVEDNGPGIPPHLQDTLFYPMVSGREGGTGLGLSIARNLIDQHSGKIEFTSWPGHTEFSVYLPIRK [P0AFB5] | 5.25 ± 0.15 | 5.41 ± 0.72 | 5.19 ± 0.57 | 4.938 ± 0.023 | 4.73 ± 0.11 | 3.11 ± 0.38 | 5.27 ± 0.073 | 9.99 ± 1.6 | 4.48 ± 0.38 | 8.26 ± 1 | 7.12 ± 0.5 | 11.2 ± 2.2 |
